Experimental data taken from patent US20220089698A1 (published 2022).
Substitutions are numbered along the chain they refer to.

B1: 1.1.35-1 (antibody, human IgG1, kappa, V domains shown)
VH: QVQLLQSGAAVTKPGASVRVSCEASGYNIRDYFIHWWRQAPGQGLQWVGWINPKTGQPNNPRQFQGRVSLTRHASWDFDTFSFYMDLKALRSDDTAVYFCARQRSDYWDFDVWGSGTQVTVSS
VL: DIQMTQSPSSLSASVGDRVTITCQANGYLNWYQQKPGKAPKLLIYDGSNLETGVPSRFSGSRWGQEYTLTISSLQPEDIATYFCQVYEFVGPGTNLDIKR
B2: 1.32.32-1 (antibody, human IgG1, kappa)
heavy: QVQLVQSGAEVTKPGASVRVSCEASGYNIRDYFIHWWRQAPGQGLQWVGWINPKTGQPNNPRQFQGRVSLTRHASWDFDTFSFYMDLKALRSDDTAVYFCARQRTDYWDFDVWGSGTQVTVSSASTKGPSVFPLAPSSKSTSGGTAALGCLVKDYFPEPVTVSWNSGALTSGVHTFPAVLQSSGLYSLSSVVTVPSSSLGTQTYICNVNHKPSNTKVDKKVEPKSCDKTHTCPPCPAPELLAGPDVFLFPPKPKDTLMISRTPEVTCVVVDVSHEDPEVKFNWYVDGVEVHNAKTKPREEQYNSTYRVVSVLTVLHQDWLNGKEYKCKVSNKALPLPEEKTISKAKGQPREPQVYTLPPSREEMTKNQVSLTCLVKGFYPSDIAVEWESNGQPENNYKTTPPVLDSDGSFFLYSKLTVDKSRWQQGNVFSCSVLHEALHSHYTQKSLSLSPGK
light: DIQMTQSPSSLSASVGDTVTITCQANGYLNWYQQRRGKAPKLLIYDGSKLERGVPSRFSGRRWGQEYTLTISSLQPEDIATYFCQVYEFVTPGTRLDLKRTVAAPSVFIFPPSDEQLKSGTASVVCLLNNFYPREAKVQWKVDNALQSGNSQESVTEQDSKDSTYSLSSTLTLSKADYEKHKVYACEVTHQGLSSPVTKSFNRGEC
B3: 1.36.32-1 (antibody, human IgG1, kappa)
heavy: QVQLVQSGAEVKKPGASVRVSCKASGYNIRDYFMHWWRQAPGQGLQWVGWINPKTGQPNNPRQFQGRVTMTRHASWDFDTFSAYMDLSRLRSDDTATYFCARQRTDYWDFDVWGQGTMVTVSSASTKGPSVFPLAPSSKSTSGGTAALGCLVKDYFPEPVTVSWNSGALTSGVHTFPAVLQSSGLYSLSSVVTVPSSSLGTQTYICNVNHKPSNTKVDKKVEPKSCDKTHTCPPCPAPELLAGPDVFLFPPKPKDTLMISRTPEVTCVVVDVSHEDPEVKFNWYVDGVEVHNAKTKPREEQYNSTYRVVSVLTVLHQDWLNGKEYKCKVSNKALPLPEEKTISKAKGQPREPQVYTLPPSREEMTKNQVSLTCLVKGFYPSDIAVEWESNGQPENNYKTTPPVLDSDGSFFLYSKLTVDKSRWQQGNVFSCSVLHEALHSHYTQKSLSLSPGK
light: B2 light
B4: 1.34.34-1 (antibody, human IgG1, kappa)
heavy: B2 heavy with T12K, E23K, S69T
light: B2 light with K49N, L98I
B5: 1.1.33-1 (antibody, human IgG1, kappa)
heavy: B2 heavy with V5L, E10A, T105S
light: B2 light with K49N, T91V, R95N, L98I
B6: 1.34.32-1 (antibody, human IgG1, kappa)
heavy: B2 heavy with T12K, E23K, S69T
light: B2 light
B7: 1.33.34-1 (antibody, human IgG1, kappa)
heavy: B2 heavy with T12K, E23K, S69T, V97T, T105S
light: B2 light with K49N, L98I
B8: 1.35.34-1 (antibody, human IgG1, kappa)
heavy: B3 heavy with A83F
light: B2 light with K49N, L98I
B9: 1.35.32-1 (antibody, human IgG1, kappa)
heavy: B3 heavy with A83F
light: B2 light
B10: 1.33.33-1 (antibody, human IgG1, kappa)
heavy: B2 heavy with T12K, E23K, S69T, V97T, T105S
light: B2 light with K49N, T91V, R95N, L98I
B11: 1.31.33-1 (antibody, human IgG1, kappa)
heavy: B2 heavy with V97T, T105S
light: B2 light with K49N, T91V, R95N, L98I
B12: 1.34.33-1 (antibody, human IgG1, kappa)
heavy: B2 heavy with T12K, E23K, S69T
light: B2 light with K49N, T91V, R95N, L98I
B13: 1.36.34-1 (antibody, human IgG1, kappa)
heavy: B3 heavy
light: B2 light with K49N, L98I
B14: 1.32.33-1 (antibody, human IgG1, kappa)
heavy: B2 heavy
light: B2 light with K49N, T91V, R95N, L98I
B15: 1.1.34-1 (antibody, human IgG1, kappa)
heavy: B2 heavy with V5L, E10A, T105S
light: B2 light with K49N, L98I
B16: 1.31.34-1 (antibody, human IgG1, kappa)
heavy: B2 heavy with V97T, T105S
light: B2 light with K49N, L98I
B17: 1.33.32-1 (antibody, human IgG1, kappa)
heavy: B2 heavy with T12K, E23K, S69T, V97T, T105S
light: B2 light
B18: 1.32.34-1 (antibody, human IgG1, kappa)
heavy: B2 heavy
light: B2 light with K49N, L98I
B19: 1.35.33-1 (antibody, human IgG1, kappa)
heavy: B3 heavy with A83F
light: B2 light with K49N, T91V, R95N, L98I

molecular target: HIV gp120 Bal (HIV); experiment: single-point ELISA; note: test concentration or dose not given here

Binder	ELISA (A450)
B1	0.96 A450
B2	0.89 A450
B3	0.96 A450
B4	0.89 A450
B5	0.87 A450
B6	0.93 A450
B7	0.95 A450
B8	1 A450
B9	0.96 A450
B10	1.09 A450
B11	0.89 A450
B12	1.1 A450
B13	1.01 A450
B14	0.93 A450
B15	0.9 A450
B16	0.76 A450
B17	0.98 A450
B18	0.81 A450
B19	0.9 A450

molecular target: HIV gp120 CAAN (HIV); experiment: single-point ELISA; note: test concentration or dose not given here

Binder	ELISA (A450)
B1	0.75 A450
B2	0.9 A450
B3	0.5 A450
B4	0.88 A450
B5	0.94 A450
B6	0.97 A450
B7	0.95 A450
B8	0.85 A450
B9	1.01 A450
B10	1.06 A450
B11	0.86 A450
B12	1.04 A450
B13	0.43 A450
B14	0.68 A450
B15	0.96 A450
B16	0.86 A450
B17	1.13 A450
B18	0.86 A450
B19	0.91 A450
